The values below come from publication PMC4715492.

The target in the assay is 2xMyc‐PAK6 (p21‐activated kinase 6) (human) (UniProt Q9NQU5). The assay can be described thus: co-IP; lysates of HEK293T cells co-transfected with Flag-LRRK2 and Myc-PAK6 or Myc-14-3-3; immunoprecipitation with anti-Flag or with anti-Myc; washes in lysis buffer (50 mM Tris pH 7.5, 1% Triton X-100) with 0.25 M NaCl; immunoblot. (A western blot detects proteins with antibodies after separation by electrophoresis.)
Sequence of UniProt Q9NQU5 (Q9NQU5 whole entry): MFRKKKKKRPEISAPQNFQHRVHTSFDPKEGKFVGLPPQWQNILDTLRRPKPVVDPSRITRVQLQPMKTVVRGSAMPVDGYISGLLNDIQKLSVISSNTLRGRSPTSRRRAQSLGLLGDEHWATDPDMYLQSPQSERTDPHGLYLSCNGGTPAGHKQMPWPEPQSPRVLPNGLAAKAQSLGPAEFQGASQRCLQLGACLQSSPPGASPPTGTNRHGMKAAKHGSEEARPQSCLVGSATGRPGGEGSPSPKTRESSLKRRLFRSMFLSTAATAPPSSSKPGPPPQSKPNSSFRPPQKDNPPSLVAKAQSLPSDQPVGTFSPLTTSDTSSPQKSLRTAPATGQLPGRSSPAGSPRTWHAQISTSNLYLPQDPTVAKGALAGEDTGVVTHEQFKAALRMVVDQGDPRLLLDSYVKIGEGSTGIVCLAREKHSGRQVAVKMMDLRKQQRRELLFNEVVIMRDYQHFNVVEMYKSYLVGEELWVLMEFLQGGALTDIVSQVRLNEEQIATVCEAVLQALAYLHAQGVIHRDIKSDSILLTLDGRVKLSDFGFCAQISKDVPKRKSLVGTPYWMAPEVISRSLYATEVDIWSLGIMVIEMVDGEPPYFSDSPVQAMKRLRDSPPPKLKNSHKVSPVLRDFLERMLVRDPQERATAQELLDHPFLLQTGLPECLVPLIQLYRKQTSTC

3xFlag‐LRRK2 wild type, Q5S007 1-2527 registered a fold of LRRK2 bound, against 2xMyc‐14‐3‐3 zeta of 3.5 fold.
